According to publication doi:10.1101/774158:
pKd: −log10 of the molar value.

Key:
WT-ZnF-KLF1 (mouse) = WT-ZnF-KLF1 (mouse) (UniProt P46099); experiment: EMSA
[1] = target: CDA-ZnF-KLF1 E321K (mouse) (UniProt P46099); experiment: EMSA
Chain of CDA-ZnF-KLF1 E321K (mouse) (P46099 275-358 E321K): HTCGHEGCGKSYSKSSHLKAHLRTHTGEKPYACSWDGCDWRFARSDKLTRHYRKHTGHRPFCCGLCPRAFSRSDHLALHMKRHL

Chain of WT-ZnF-KLF1 (mouse) (P46099 275-358): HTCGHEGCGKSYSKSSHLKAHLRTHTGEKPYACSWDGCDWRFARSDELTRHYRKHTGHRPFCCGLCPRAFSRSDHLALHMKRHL

Question: What does the source list for beta-globin site?
Answer: pKd (WT-ZnF-KLF1 (mouse)): 6.26; pKd [1]: 3.62
